Laboratory results reported in US20190345446A1 (BROAD INSTITUTE, published 2019).

Experiments:
[1] = molecular target: T1, STAT3 (mouse, endogenous) (mouse, UniProt P42227 2-770); assay: co-immunoprecipitation with anti-Fas antibody and Protein G beads from EL4 mouse T cell line, Western blot
T1 construct: Endogenous intracellular protein
Protocol: (§1) For DISC assembly, 1*10⁸ EL4 cells or 5-7*10⁷ MACS sorted primary mouse CD4 cells were stimulated for 15 minutes with either biotinylated anti-Fas antibody (Jo2, 2.5 μg/ml) and streptavidin ([…], Thermo Scientific) or with multimerized recombinant human Fas ligand (aa 139-281) fused at the N-terminus to mouse ACRP30headless (aa 18-111) and a FLAG-tag (MegaFasL, Adipogen) at a final concentration of 100 ng/ml as indicated in the figure legends. MegaFasL was dissolved in H₂O that was used as vehicle. For immunoprecipitation (IP) experiments, cells were then washed twice with ice-cold PBS, lysed in ice-cold IP buffer containing 30 mM Tris HCL, 1% Triton-X100, 150 mM NaCl, 2 mM EDTA, 10% glycerol, 1 mM PMSF, phosphatase inhibitors (HALT, Thermo Scientific) and protease inhibitors (Roche). Immuoprecipitation was performed immediately after lysis using protein G magnetic Dynabeads (Life Technologies) with three consecutive washes with IP buffer. For phosphorylation studies, sorted naïve T cells were stimulated with the cytokines as indicated, then washed with PBS, and either lysed in IP buffer or cytoplasmic and nuclear fractions were extracted using NE-PER reagents (Thermo Scientific) following the manufacturer's protocol. […]

[2] = molecular target: T2, STAT4 (mouse, endogenous) (mouse, UniProt P42228 1-749); assay: as above
T2 construct: Endogenous intracellular protein
T2 sequence (looked up): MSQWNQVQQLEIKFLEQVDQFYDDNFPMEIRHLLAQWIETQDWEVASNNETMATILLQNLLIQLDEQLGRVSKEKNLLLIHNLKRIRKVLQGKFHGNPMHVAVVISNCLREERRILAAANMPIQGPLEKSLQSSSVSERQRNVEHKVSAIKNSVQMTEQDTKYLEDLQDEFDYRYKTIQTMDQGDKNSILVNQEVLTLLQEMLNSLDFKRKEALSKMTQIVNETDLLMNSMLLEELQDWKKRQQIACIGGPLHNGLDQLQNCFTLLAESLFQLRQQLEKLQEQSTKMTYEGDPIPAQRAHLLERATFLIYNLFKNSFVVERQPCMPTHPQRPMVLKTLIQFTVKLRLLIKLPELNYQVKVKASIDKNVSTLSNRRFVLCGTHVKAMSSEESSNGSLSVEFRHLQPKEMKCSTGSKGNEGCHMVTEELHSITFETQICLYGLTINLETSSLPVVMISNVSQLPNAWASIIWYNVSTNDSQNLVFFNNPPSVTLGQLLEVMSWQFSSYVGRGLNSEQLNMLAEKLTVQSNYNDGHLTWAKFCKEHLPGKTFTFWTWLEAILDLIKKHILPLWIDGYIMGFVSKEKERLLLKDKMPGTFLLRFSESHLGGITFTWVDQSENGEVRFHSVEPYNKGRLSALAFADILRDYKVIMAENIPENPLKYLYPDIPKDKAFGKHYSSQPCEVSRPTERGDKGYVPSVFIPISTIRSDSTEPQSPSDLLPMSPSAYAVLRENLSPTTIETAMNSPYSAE
Protocol: as §1

T1 sequence (P42227 2-770 limits assumed): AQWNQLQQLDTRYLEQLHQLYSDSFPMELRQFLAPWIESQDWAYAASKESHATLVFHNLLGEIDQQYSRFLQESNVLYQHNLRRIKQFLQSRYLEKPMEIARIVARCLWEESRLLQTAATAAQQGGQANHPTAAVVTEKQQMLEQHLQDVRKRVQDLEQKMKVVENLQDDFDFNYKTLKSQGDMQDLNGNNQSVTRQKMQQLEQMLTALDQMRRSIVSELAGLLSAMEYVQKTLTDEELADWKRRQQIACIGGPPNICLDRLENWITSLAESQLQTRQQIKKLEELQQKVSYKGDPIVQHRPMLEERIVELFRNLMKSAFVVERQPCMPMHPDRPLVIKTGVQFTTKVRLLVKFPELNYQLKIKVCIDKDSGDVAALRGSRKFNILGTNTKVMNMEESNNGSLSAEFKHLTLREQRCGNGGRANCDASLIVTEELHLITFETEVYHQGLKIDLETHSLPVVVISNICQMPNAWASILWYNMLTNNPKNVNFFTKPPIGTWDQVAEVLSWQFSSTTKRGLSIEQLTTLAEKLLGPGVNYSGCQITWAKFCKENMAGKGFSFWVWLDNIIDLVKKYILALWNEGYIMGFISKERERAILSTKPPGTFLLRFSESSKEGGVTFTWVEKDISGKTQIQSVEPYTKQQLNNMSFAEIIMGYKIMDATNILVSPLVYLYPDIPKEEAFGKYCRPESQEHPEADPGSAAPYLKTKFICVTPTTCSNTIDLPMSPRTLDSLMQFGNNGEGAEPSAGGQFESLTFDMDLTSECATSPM

B1: Fas (mouse death receptor Fas, endogenous in EL4 cells and primary mouse CD4+ T cells) (receptor, UniProt P25446 22-327, looked up)
chain: QGTNSISESLKLRRRVRETDKNCSEGLYQGGPFCCQPCQPGKKKVEDCKMNGGTPTCAPCTEGKEYMDKNHYADKCRRCTLCDEEHGLEVETNCTLTQNTKCKCKPDFYCDSPGCEHCVRCASCEHGTLEPCTATSNTNCRKQSPRNRLWLLTILVLLIPLVFIYRKYRKRKCWKRRQDDPESRTSSRETIPMNASNLSLSKYIPRIAEDMTIQEAKKFARENNIKEGKIDEIMHDSIQDTAEQKVQLLLCWYQSHGKSDAYQDLIKGLKKAECRRTLDKFQDMVQKDLGKSTPDTGNENEGQCLE
notes: whole, on cells; Endogenous protein; also called Fas receptor; CD95
B1: no binding [1]; no binding [2].
